Consider one molecule from publication PMC5748983.

The target in this assay is GST-DENN-4 (C. elegans). As to the kind of experiment: pull-down.

B1: HA-RAB-10(T23N) (natural protein)
chain: MARRPYDMLFKLLLIGDSGVGKNCILYRFSDDAFNTTFISTIGIDFKIKTIELKGKKIKLQIWDTAGQERFHTITTSYYRGAMGIMLVYDITNAKSFDNIAKWLRNIDEHASEDVVKMILGNKCDMSDRRVVSRERGEKIAQDHGISFHETSAKLNVHVDTAFYDLAEAILAKMPDSTDEQSRDTVNPVQPQRQSSSGGCC
As to B1, the fold increase of pull-down with HA-LET-413 added, against without was 3 fold.
